Test results: publication PMC3140978, “The G1613A Mutation in the HBV Genome Affects HBeAg Expression and Viral Replication through Altered Core Promoter Activity”

B1: NS non-specific oligo (dsDNA)
DNA 1: GGAATTACGTGGCCACTCGAGGGAATTACG
DNA 2: CGTAATTCCCTCGAGTGGCCACGTAATTCC
B2: A1613 mutant NRE probe (dsDNA)
DNA 1: GCACGTCGCATGGAAACCACCGTGAACGCC
DNA 2: GGCGTTCACGGTGGTTTCCATGCGACGTGC

Columns and labels:
RFX1 [1] = target: T1, RFX1 (Homo sapiens, UniProt P22670 1-979); test: EMSA; EMSA: 1x binding buffer from 10x (50 mM NaCl, 10 mM Tris-HCl pH 7.5, 2.5 mM MgCl2, 4% glycerol, 0.5 mM DTT), 0.05% NP40, poly(dI-dC), 20 ul, room temperature 1; settings: protein: ivt; tags: C-terminal myc in the source clone pCMV-RFX1; chain copies: 2; label: 32P end label (T4 kinase); blunt
T1 sequence: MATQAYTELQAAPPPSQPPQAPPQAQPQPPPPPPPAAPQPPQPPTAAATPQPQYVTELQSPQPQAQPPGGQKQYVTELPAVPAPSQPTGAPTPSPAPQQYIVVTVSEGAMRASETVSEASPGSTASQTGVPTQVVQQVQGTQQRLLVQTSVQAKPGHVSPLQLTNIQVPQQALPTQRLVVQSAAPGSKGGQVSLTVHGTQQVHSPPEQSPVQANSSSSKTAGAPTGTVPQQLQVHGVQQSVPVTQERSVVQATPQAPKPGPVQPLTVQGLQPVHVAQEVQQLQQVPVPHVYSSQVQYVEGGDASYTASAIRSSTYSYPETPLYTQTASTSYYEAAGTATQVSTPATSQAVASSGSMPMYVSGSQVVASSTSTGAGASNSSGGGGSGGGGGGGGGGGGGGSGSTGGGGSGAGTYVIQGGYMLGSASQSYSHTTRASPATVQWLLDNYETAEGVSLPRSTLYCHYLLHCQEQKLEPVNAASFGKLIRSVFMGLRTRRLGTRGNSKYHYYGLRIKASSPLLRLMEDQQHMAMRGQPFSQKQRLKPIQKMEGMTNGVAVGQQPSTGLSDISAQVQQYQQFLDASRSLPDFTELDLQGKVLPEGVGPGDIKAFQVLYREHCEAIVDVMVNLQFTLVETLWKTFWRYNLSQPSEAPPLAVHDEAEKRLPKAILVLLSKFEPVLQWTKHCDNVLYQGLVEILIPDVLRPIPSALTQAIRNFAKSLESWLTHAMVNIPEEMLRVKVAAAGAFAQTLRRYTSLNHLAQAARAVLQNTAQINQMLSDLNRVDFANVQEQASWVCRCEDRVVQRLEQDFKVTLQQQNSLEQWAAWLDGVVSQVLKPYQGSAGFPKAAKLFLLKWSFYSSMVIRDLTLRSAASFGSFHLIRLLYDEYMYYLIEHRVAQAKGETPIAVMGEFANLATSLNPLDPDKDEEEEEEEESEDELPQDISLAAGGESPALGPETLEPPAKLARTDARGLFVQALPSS

RFX1 [2] = target: T1, RFX1; test: EMSA; shifted to C2 position; favored over wild-type; EMSA: 1x binding buffer from 10x (50 mM NaCl, 10 mM Tris-HCl pH 7.5, 2.5 mM MgCl2, 4% glycerol, 0.5 mM DTT), 0.05% NP40, poly(dI-dC), 20 ul, room temperature 1; settings: protein: ivt; tags: C-terminal myc in the source clone pCMV-RFX1; chain copies: 2; label: 32P end label (T4 kinase); blunt

Binder	binding result (RFX1 [1])	binding result (RFX1 [2])
B1	no binding	
B2		binds
